Values of other authors, collected in PMC2659627 (Bioconjugate chemistry, 2008).
DPr = 2,3-diaminopropanoyl

Columns and labels:
[1] = biological target: GRP-receptors; settings: read-out: IC50 (binding affinity to GRP-receptors); human PC-3 cell line
[2] = test system: PC-3 cells; settings: after 90 min incubation with PC-3 cells
[3] = test system: CA20948 pancreas tumor
[4] = test system: PC-3 prostate tumors

| Substance | Uptake in normal pancreas [ID/g] | IC50 [1] [nM] | Internalization [2] [%] | Uptake compared to DTPA-BBN[1-14] [3] | Uptake compared to DTPA-BBN[1-14] [4] [times] |
| --- | --- | --- | --- | --- | --- |
| (DPr)-Ser-Ser-Ser-Gln-Trp-AlaVal-Gly-His-Leu-Met-(NH2) (DPr-SSSQWAVGHLM-NH2; also: Tc/Re tricarbonyl complex on DPr chelator) | 16 ± 1.3 | ~0.86 | 80 |  |  |
| DTPA-ACMpip-Tha^6-BAla^11-Tha^13-Nle^14-BBN[6-14] |  |  |  | two to three times higher | 1.3 |
